According to patent US20100015155A1 (Eli Lilly, published 2010):

Legend:
[1] = target: T1, human soluble Abeta (1-40) (human, UniProt P05067 672-711); experiment: KinExA equilibrium, ratio of KD values
T1 construct: domain: Abeta (1-40); The numbers 1-40 count on the Aβ peptide, not on the APP precursor entry; also called Human Abeta (1-40); human abeta
Procedure: (§1) KinExA analysis is used as an orthogonal approach to measure binding affinity through equilibrium binding analysis due to the slow off-rate of the antigen Fab complex. A KinExA 3000 instrument (Sapidyne Inst. Inc.) is used to measure binding kinetics. Briefly, the antigen is covalently coupled to sepharose beads and the binding of free Fab/Fab-PEG to the beads is detected on the instrument. […] After the incubation, free Fab/Fab-PEG in each equilibrated sample is determined on the KinExA 3000 according to the manufacturer's instructions. Kd values are determined by n-Curve Analysis using KinExA 3000 software.

[2] = target: T1, human soluble Abeta (1-40); experiment: KinExA equilibrium, antigen on sepharose beads, soluble Abeta (1-40) titrated, 37 C; 1A1 Fab, not PEGylated
Procedure: as §1

T1 sequence (P05067 672-711 limits assumed): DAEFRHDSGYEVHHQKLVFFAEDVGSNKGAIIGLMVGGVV

B1: 1A1-Fab (humanized antibody Fab fragment, LCVR of SEQ ID NO: 1 and HCVR of SEQ ID NO: 2) (Fab, V domains shown)
VH: EVQLVESGGGLVKPGGSLRLSCAASGYTFSRYSMSWVRQAPGKGLEWVGQINIRGCNTYYPDTVKGRFTISRDDSKNTLYLQMNSLKTEDTAVYYCTTGDFWGQGTLVTVSS
VL: DIVMTQTPLSLSVTPGQPASISCSSSQSLIYSDGNAYLHWYLQKPGQSPQLLIYKVSNRFSGVPDRFSGSGSGTDFTLKISRVEAEDVGVYYCTQSTHSPWTFGGGTKVEIK
notes: Fab without PEG; CH1 and CL are not; The light chain is human kappa, since it is captured or detected with anti-human kappa; also called humanized 1A1-Fab; 1A1 N56C Fab
[1]
  fold affinity against murine 266 Fab: ~10 fold
[2]
  Kd: 0.019 nM
